Data from patent US20220098307A1 (WUHAN YZY BIOPHARMA, published 2022).
Numbering of substitutions follows the chain as printed. Numbers in names are those of the source.

Molecular target: T1, Monkey CD3 (monkey)
T1 construct: whole, on cells; also called CD3 of monkey CD3 positive T cells
Assay: flow cytometry, monkey T cells

B1: CD38-M1-G2 (bispecific antibody, human IgG1, kappa)
chain: QVQLVESGGGVVQPGRSLRLSCAASGFTFSTYAMNWVRQAPGKGLEWVARIRSKYNNYATYYADSVKDRFTISRDDSKNTLYLQMNSLRAEDTAVYYCARHGNFGNSYVSWFAYWGQGTLVTVSSGGGGSGGGGSGGGGSQTVVTQEPSLTVSPGGTVTLTCRSSTGAVTTSNYANWVQQKPGQAPRGLIGGTNKRAPGVPARFSGSLLGGKAALTLSGVQPEDEAEYYCALWYSNLWVFGGGTKVEIKGRGRGSDKTHTCPPCPAPPVAGPSVFLFPPKPKDTLMISRTPEVTCVVVDVSHEDPEVQFNWYVDGVEVHNAKTKPREEQFNSTFRVVSVLTVVHQDWLNGKEYKCKVSNKGLPAPIEKTISKTKGQPREPQVCTLPPSRDELTKNQVSLSCAVKGFYPSDIAVEWESNGQPENNYKTTPPVLDSDGSFFLVSKLTVDKSRWQQGNVFSCSVMHEALHNHYTQKSLSLSPGK
heavy: EVQLLESGGGLVQPGGSLRLSCAVSGFTFNSFAMSWVRQAPGKGLEWVSAISGSGGGTYYADSVKGRFTISRDNSKNTLYLQMNSLRAEDTAVYFCAKDKILWFGEPVFDYWGQGTLVTVSSASTKGPSVFPLAPSSKSTSGGTAALGCLVKDYFPEPVTVSWNSGALTSGVHTFPAVLQSSGLYSLSSVVTVPSSSLGTQTYICNVNHKPSNTKVDKKVEPKSCDKTHTCPPCPAPPVAGPSVFLFPPKPKDTLMISRTPEVTCVVVDVSHEDPEVQFNWYVDGVEVHNAKTKPREEQFNSTFRVVSVLTVVHQDWLNGKEYKCKVSNKGLPAPIEKTISKTKGQPREPQVYTLPPCRDELTKNQVSLWCLVKGFYPSDIAVEWESNGQPENNYKTTPPVLDSDGSFFLYSKLTVDKSRWQQGNVFSCSVMHEALHNHYTQKSLSLSPGK
light: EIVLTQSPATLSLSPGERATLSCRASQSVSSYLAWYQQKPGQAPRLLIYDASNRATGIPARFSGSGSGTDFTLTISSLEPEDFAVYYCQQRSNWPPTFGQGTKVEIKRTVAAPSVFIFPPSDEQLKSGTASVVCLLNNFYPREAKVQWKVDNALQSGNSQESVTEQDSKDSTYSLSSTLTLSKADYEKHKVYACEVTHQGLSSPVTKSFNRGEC
notes: structure 1; CD38 x CD3; CH2 G2CH2
  EC50: 142 nM

B2: CD38-M1-G2-1 (bispecific antibody)
chain: not shown
heavy: B1 heavy
light: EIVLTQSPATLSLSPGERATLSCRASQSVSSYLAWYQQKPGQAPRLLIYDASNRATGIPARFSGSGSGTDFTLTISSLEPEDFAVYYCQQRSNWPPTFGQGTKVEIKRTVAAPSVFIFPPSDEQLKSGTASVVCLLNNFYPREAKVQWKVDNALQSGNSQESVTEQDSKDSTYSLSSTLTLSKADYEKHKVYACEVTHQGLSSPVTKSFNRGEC
notes: structure 1; CD38 x CD3 (I2C); CH2 G2CH2
  EC50: 12.6 nM

B3: CD38-M1-G2D (bispecific antibody)
chain: not shown
heavy: B1 heavy with D274A
light: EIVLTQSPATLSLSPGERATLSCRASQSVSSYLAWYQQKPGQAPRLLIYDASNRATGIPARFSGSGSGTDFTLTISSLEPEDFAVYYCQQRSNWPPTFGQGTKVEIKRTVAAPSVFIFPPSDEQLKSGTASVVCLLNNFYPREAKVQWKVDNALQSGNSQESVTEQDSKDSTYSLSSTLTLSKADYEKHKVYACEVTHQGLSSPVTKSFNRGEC
notes: structure 1; CD38 x CD3 (I2C); CH2 G2DCH2
  EC50: 10.1 nM

B4: CD38-M1-DG2 (bispecific antibody)
chain: not shown
heavy: B1 heavy with D269A
light: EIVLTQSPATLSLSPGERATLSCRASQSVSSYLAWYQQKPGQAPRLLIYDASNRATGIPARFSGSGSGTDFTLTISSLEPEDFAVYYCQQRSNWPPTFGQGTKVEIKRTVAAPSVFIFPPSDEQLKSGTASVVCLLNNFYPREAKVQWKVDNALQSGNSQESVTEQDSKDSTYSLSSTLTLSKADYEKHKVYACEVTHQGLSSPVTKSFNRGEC
notes: structure 1; CD38 x CD3 (I2C); CH2 DG2CH2
  EC50: 11 nM

B5: CD38-M1-DG2D (bispecific antibody)
chain: not shown
heavy: B1 heavy with D269A, D274A
light: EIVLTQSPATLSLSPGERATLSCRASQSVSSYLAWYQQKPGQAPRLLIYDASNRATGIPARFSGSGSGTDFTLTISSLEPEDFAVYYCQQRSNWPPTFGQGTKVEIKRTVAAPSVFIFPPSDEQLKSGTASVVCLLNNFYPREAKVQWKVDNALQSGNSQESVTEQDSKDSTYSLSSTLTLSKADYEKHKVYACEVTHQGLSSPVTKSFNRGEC
notes: structure 1; CD38 x CD3 (I2C); CH2 DG2DCH2
  EC50: 7.05 nM

B6: CD38-M1-GG2 (bispecific antibody)
chain: not shown
heavy: B1 heavy with C234G
light: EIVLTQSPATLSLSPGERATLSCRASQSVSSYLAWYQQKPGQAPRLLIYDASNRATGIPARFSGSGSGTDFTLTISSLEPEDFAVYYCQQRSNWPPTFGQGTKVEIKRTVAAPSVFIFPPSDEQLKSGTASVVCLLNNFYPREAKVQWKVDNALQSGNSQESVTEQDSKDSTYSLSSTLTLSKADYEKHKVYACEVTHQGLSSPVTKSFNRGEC
notes: structure 1; CD38 x CD3 (I2C); CH2 GG2CH2
  EC50: 10.4 nM

B7: CD38-M1-PG2 (bispecific antibody)
chain: not shown
heavy: B1 heavy with C234P
light: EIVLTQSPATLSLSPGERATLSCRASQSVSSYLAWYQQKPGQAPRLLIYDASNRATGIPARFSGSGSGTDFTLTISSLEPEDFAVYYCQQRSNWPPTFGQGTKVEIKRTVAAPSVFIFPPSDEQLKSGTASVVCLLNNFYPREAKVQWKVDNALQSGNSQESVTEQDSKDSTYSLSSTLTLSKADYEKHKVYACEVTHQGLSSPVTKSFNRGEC
notes: structure 1; CD38 x CD3 (I2C); CH2 PG2CH2
  EC50: 11.5 nM

B8: CD38-M1-SG2-3 (bispecific antibody)
chain: not shown
heavy: B1 heavy with C234S
light: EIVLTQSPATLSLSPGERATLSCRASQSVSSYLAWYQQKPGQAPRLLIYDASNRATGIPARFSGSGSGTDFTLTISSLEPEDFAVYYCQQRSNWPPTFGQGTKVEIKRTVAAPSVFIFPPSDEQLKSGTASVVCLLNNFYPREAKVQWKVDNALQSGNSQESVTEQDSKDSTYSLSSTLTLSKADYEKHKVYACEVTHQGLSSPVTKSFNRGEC
notes: structure 1; CD38 x CD3 (I2C); CH2 SG2CH2
  EC50: 7.59 nM

B9: CD38-M1-AG2 (bispecific antibody)
chain: not shown
heavy: B1 heavy with C234A
light: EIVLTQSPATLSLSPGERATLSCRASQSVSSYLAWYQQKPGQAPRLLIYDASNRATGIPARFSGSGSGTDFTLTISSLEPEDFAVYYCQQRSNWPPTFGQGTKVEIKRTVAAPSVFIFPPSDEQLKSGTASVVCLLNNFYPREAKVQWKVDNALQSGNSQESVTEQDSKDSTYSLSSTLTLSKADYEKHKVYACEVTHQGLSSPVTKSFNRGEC
notes: structure 1; CD38 x CD3 (I2C); CH2 AG2CH2
  EC50: 10.2 nM

B10: CD38-M1-SG2 (bispecific antibody, human IgG1, kappa)
chain: B1 chain with C264S
heavy: B1 heavy with C234S
light: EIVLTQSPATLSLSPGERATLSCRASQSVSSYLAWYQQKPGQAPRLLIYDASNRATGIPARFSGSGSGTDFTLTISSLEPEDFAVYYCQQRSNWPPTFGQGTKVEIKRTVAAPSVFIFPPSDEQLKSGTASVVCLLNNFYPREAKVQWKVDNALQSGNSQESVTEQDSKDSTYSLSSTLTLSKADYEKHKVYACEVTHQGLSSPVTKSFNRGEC
notes: structure 1; CD38 x CD3; CH2 SG2CH2
  EC50: 159 nM

B11: CD38-M1-FES (bispecific antibody, human IgG1, kappa)
chain: QVQLVESGGGVVQPGRSLRLSCAASGFTFSTYAMNWVRQAPGKGLEWVARIRSKYNNYATYYADSVKDRFTISRDDSKNTLYLQMNSLRAEDTAVYYCARHGNFGNSYVSWFAYWGQGTLVTVSSGGGGSGGGGSGGGGSQTVVTQEPSLTVSPGGTVTLTCRSSTGAVTTSNYANWVQQKPGQAPRGLIGGTNKRAPGVPARFSGSLLGGKAALTLSGVQPEDEAEYYCALWYSNLWVFGGGTKVEIKGGGGSDKTHTCPPCPAPEFEGGPSVFLFPPKPKDTLMISRTPEVTCVVVDVSHEDPEVKFNWYVDGVEVHNAKTKPREEQYNSTYRVVSVLTVLHQDWLNGKEYKCKVSNKALPASIEKTISKAKGQPREPQVCTLPPSRDELTKNQVSLSCAVKGFYPSDIAVEWESNGQPENNYKTTPPVLDSDGSFFLVSKLTVDKSRWQQGNVFSCSVMHEALHNHYTQKSLSLSPGK
heavy: EVQLLESGGGLVQPGGSLRLSCAVSGFTFNSFAMSWVRQAPGKGLEWVSAISGSGGGTYYADSVKGRFTISRDNSKNTLYLQMNSLRAEDTAVYFCAKDKILWFGEPVFDYWGQGTLVTVSSASTKGPSVFPLAPSSKSTSGGTAALGCLVKDYFPEPVTVSWNSGALTSGVHTFPAVLQSSGLYSLSSVVTVPSSSLGTQTYICNVNHKPSNTKVDKKVEPKSCDKTHTCPPCPAPEFEGGPSVFLFPPKPKDTLMISRTPEVTCVVVDVSHEDPEVKFNWYVDGVEVHNAKTKPREEQYNSTYRVVSVLTVLHQDWLNGKEYKCKVSNKALPASIEKTISKAKGQPREPQVYTLPPCRDELTKNQVSLWCLVKGFYPSDIAVEWESNGQPENNYKTTPPVLDSDGSFFLYSKLTVDKSRWQQGNVFSCSVMHEALHNHYTQKSLSLSPGK
light: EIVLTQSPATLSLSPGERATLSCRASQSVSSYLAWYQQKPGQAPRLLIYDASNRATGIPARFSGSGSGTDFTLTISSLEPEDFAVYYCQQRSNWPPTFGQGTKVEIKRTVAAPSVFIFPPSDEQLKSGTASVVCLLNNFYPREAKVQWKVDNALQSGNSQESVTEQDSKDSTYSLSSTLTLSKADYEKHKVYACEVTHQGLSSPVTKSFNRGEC
notes: structure 1; CD38 x CD3; CH2 FES
  EC50: 291 nM

B12: CD38-M1-FES-1 (bispecific antibody)
chain: not shown
heavy: B11 heavy
light: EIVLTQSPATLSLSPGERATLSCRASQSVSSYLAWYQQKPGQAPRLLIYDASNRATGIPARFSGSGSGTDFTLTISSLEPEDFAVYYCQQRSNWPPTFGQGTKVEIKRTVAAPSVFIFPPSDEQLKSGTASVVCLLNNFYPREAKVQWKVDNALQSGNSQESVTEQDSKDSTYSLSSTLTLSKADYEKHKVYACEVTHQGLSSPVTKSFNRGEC
notes: structure 1; CD38 x CD3 (I2C); CH2 FES
  EC50: 9.18 nM

B13: M1IC-G2 (bispecific antibody)
chain: not shown
heavy: EVKLDETGGGLVQPGRPMKLSCVASGFTFSDYWMNWVRQSPEKGLEWVAQIRNKPYNYETYYSDSVKGRFTISRDDSKSSVYLQMNNLRVEDMGIYYCTGSYYGMDYWGQGTSVTVSSASTKGPSVFPLAPSSKSTSGGTAALGCLVKDYFPEPVTVSWNSGALTSGVHTFPAVLQSSGLYSLSSVVTVPSSSLGTQTYICNVNHKPSNTKVDKKVEPKSCDKTHTCPPCPAPPVAGPSVFLFPPKPKDTLMISRTPEVTCVVVDVSHEDPEVQFNWYVDGVEVHNAKTKPREEQFNSTFRVVSVLTVVHQDWLNGKEYKCKVSNKGLPAPIEKTISKTKGQPREPQVYTLPPCRDELTKNQVSLWCLVKGFYPSDIAVEWESNGQPENNYKTTPPVLDSDGSFFLYSKLTVDKSRWQQGNVFSCSVMHEALHNHYTQKSLSLSPGK
light: DVVMTQTPLSLPVSLGDQASISCRSSQSLVHSNGNTYLRWYLQKPGQSPKVLIYKVSNRFSGVPDRFSGSGSGTDFTLKISRVEAEDLGVYFCSQSTHVPWTFGGGTKLEIKRTVAAPSVFIFPPSDEQLKSGTASVVCLLNNFYPREAKVQWKVDNALQSGNSQESVTEQDSKDSTYSLSSTLTLSKADYEKHKVYACEVTHQGLSSPVTKSFNRGEC
notes: structure 1 isotype control; CH2 G2CH2
  EC50: 10.4 nM

B14: M1IC-WT (bispecific antibody)
chain: not shown
heavy: not shown
light: B13 light
notes: structure 1 isotype control; CH2 WT; also called MlIC-WT
  EC50: 19.8 nM

B15: M1IC-AAG (bispecific antibody)
chain: not shown
heavy: not shown
light: B13 light
notes: structure 1 isotype control; CH2 AAG
  EC50: 8.79 nM

B16: M1IC-DG2 (bispecific antibody)
chain: not shown
heavy: B13 heavy with D265A
light: B13 light
notes: structure 1 isotype control; CH2 DG2CH2
  EC50: 14.5 nM

B17: M1IC-DG2D (bispecific antibody)
chain: not shown
heavy: B13 heavy with D265A, D270A
light: B13 light
notes: structure 1 isotype control; CH2 DG2DCH2; also called MlIC-DG2D
  EC50: 16 nM

B18: M1IC-FES (bispecific antibody)
chain: not shown
heavy: EVKLDETGGGLVQPGRPMKLSCVASGFTFSDYWMNWVRQSPEKGLEWVAQIRNKPYNYETYYSDSVKGRFTISRDDSKSSVYLQMNNLRVEDMGIYYCTGSYYGMDYWGQGTSVTVSSASTKGPSVFPLAPSSKSTSGGTAALGCLVKDYFPEPVTVSWNSGALTSGVHTFPAVLQSSGLYSLSSVVTVPSSSLGTQTYICNVNHKPSNTKVDKKVEPKSCDKTHTCPPCPAPEFEGGPSVFLFPPKPKDTLMISRTPEVTCVVVDVSHEDPEVKFNWYVDGVEVHNAKTKPREEQYNSTYRVVSVLTVLHQDWLNGKEYKCKVSNKALPASIEKTISKAKGQPREPQVYTLPPCRDELTKNQVSLWCLVKGFYPSDIAVEWESNGQPENNYKTTPPVLDSDGSFFLYSKLTVDKSRWQQGNVFSCSVMHEALHNHYTQKSLSLSPGK
light: B13 light
notes: structure 1 isotype control; CH2 FES
  EC50: 11.4 nM

B19: M1IC-PG2 (bispecific antibody)
chain: not shown
heavy: B13 heavy with C230P
light: B13 light
notes: structure 1 isotype control; CH2 PG2CH2
  EC50: 17.8 nM

B20: M1IC-GG2 (bispecific antibody)
chain: not shown
heavy: B13 heavy with C230G
light: B13 light
notes: structure 1 isotype control; CH2 GG2CH2
  EC50: 13 nM

B21: M1IC-NA (bispecific antibody)
chain: not shown
heavy: B18 heavy with F235L, E236L, N298A, S332P
light: B13 light
notes: structure 1 isotype control; CH2 N297A
  EC50: 9.63 nM

B22: M1IC-SG2 (bispecific antibody)
chain: not shown
heavy: B13 heavy with C230S
light: B13 light
notes: structure 1 isotype control; CH2 SG2CH2
  EC50: 13.2 nM

B23: M1IC-AG2 (bispecific antibody)
chain: not shown
heavy: B13 heavy with C230A
light: B13 light
notes: structure 1 isotype control; CH2 AG2CH2
  EC50: 14.2 nM

B24: M1IC-G2D (bispecific antibody)
chain: not shown
heavy: B13 heavy with D270A
light: B13 light
notes: structure 1 isotype control; CH2 G2DCH2
  EC50: 10.6 nM
